Experiments:
double strand DNA = assay: DNA binding assay (GST-pulldown)
Experimental: 5-10 μg GST and GST-tagged NPAC truncation proteins were incubated with 1 μg linearized plasmid DNA overnight at 4° C. in 50 mM Tris pH 7.4, 200 mM NaCl, 0.2% NP-40, 1 mM MgCl2, 1 mM EDTA, 1 mM DTT, 0.02 mM ZnSO4. After extensive washing with the same buffer, bound DNA was eluted by incubating with 100 μl 10 mM Tris pH 8.0, 1% SDS for 15 minutes at 65° C. Pulldown DNA was purified using Qiagen PCR purification kit, resolved by agarose gel electrophoresis and stained with Ethidium Bromide.

H3Kc36me3 nucleosomes = assay: MLA nucleosome pulldown by GST-NPAC.d1; format: binding; details: H3Kc36me3, H3Kc79me3, H3Kc9me3, H3Kc27me3, unmodified
Experimental: MLA nucleosomes were reconstituted using 147 bp double-strand alpha satellite DNA and recombinant histones expressed and purified from E. coli. Tri-methylation was chemically introduced to H3K9C, H3K27C, H3K36C and H3K79C histones respectively as described (Simon et al., 2007). 2 μg MLA nucleosome was used for GST-pulldown as described above.

[1] = system: nucleosomes purified from HeLa; assay: Nucleosome pulldown by GST-NPAC proteins; format: binding
Experimental: Nucleosomes were purified from HeLa as previously described (Umlauf et al., 2004). To examine nucleosome binding selectivity of NPAC, 5 μg GST fusion protein bound to glutathione agarose were incubated with 20 μg nucleosomes overnight at 4° C. in nucleosome binding buffer (50 mM NaPO4 pH 7.4, 200 mM NaCl, 0.5% NP-40, 5% glycerol, 10 μM ZnSO4, 1 mM MgCl2, 1 mM DTT, 0.1 mM PMSF). After washing 4 times with the same buffer at 4° C., the beads were boiled in 1×SDS sample loading buffer and elute was resolved by 15% SDS-PAGE for immunoblot analysis or coomassie staining.
For free-DNA competition assays, human genomic DNA was purified from HeLa cells and fragmented to an average size around 300 bp by sonication. Equal amounts of GST-NPAC.d5 bound to glutathione beads were pre-incubated with 0, 5, 10, 25 μg genomic DNA fragments in nucleosome binding buffer for 30 minutes at room temperature, and equal amounts of nucleosomes were added and incubated overnight at 4° C. After extensive washing, GST-NPAC.d5 and bound nucleosomes were eluted by boiling in 1×SDS sample loading buffer, resolved by SDS-PAGE and stained with coomassie blue.

B1: NPAC.d1: Example 2 GST-NPAC truncation, residues 1-150 (protein, UniProt Q49A26 1-150, looked up, fragment)
chain: MAAVSLRLGDLVWGKLGRYPPWPGKIVNPPKDLKKPRGKKCFFVKFFGTEDHAWIKVEQLKPYHAHKEEMIKINKGKRFQQAVDAVEEFLRRAKGKDQTSSHNSSDDKNRRNSSEERSRPNSGDEKRKLSLSEGKVKKNMGEGKKRVSSG
modifications: GST tag
- DNA binding (GST-pulldown) (double strand DNA): can bind to double strand DNA
- Binding to modification-specific MLA nucleosomes (H3Kc36me3 nucleosomes): highest binding affinity for H3Kc36me3 nucleosomes over H3Kc79me3
- Nucleosome binding (GST-pulldown) [1]: strong binding to nucleosomes
